Assay results: patent publication US20230107644A1 (UNIVERSITY OF ROCHESTER, published 2023)

How the values were obtained:
Test in all cases: cell-based or functional assay
[1] = target: HA (H3) of influenza virus A/Wyoming/3/2003 (influenza A virus A/Wyoming/3/2003 …)
[2] = target: NA (N2) of influenza virus A/Victoria/210/2009 (influenza A virus A/Victoria/210/2009 …)
[3] = target: NA (N2) of influenza virus A/Switzerland/9715283/2013 (influenza A virus …)
[4] = target: NA (N2) of influenza virus A/Wyoming/3/2003 (influenza A virus A/Wyoming/3/2003 …)

B1: 1092C4 hmAb (antibody, V domains shown)
VH: EVQLVQSGAEVKKPGASVKVSCKASGYSFTRYGISWVRQAPGQGLEWMGWISAYTGNTDYAQKFQGRITMTTDTSTSTAYMELRSLRSDDTAVYYCARDLPQGVVILGSYYYGMDVWGQGNTVTVSS
VL: EIVLTQSPGTLSLSPGERATLSCRASQSVTSRYLAWYQQKLGQAPRLLIYGASSRATGIPDRFSGSGSGTDFTLTISSLEPEDLAVYYCQQSGSPRTFGQGTKVEIK
[1]
  NT50: 1.6 µg/mL

B2: 1092E4 hmAb (antibody, V domains shown)
VH: QVQLVQSGAEVKKPGASVKVSCKASGYSFTRYGISWVRQAPGQGLEWMGWISAYTGNTDYAQKFQGRITMTTDTSTSTVYMELRSLRSDDTAVYYCARDHPQGVVILGSYYYGMDVWGQGNTVTVSS
VL: EIVLTQSPGTLSLSPGERATLSCRASQSVTSRYLAWYQQKLGQAPRLLIYGASSRATGIPDRFSGSGSGTDFTLTISSLEPEDFAVYYCQQSGSPRTFGQGTKVEIK
[1]
  NT50: 3.13 µg/mL

B3: 1086G8 hmAb (antibody, V domains shown)
VH: EVQLLESGGGLVQPGGSLRLSCTASGFTFASDAMNWVRQAPGKGLEWVSAISGNGGITYFADSVKGRFTISRDNSKDTLYLQMDSLRAEDTAVYYCAKGVAPSHFNLLTGYYAGHYYFDFWGQGTLVTVSS
VL: EIVMTQSPATLSVSPGERATLSCRASQSVRHNLAWYQHKPGQPPRLLIYGASTRAASVPARFSGSGSGTDFTLTISSLQSEDFAVYYCQQYNHWPPYTFGQGTKLEIK
[1]
  NT50: 0.78 µg/mL

B4: 1122A11 hmAb (antibody, V domains shown)
VH: QVQLVQSGAEVSKPGASVKVSCKASGYSFTSQSLGWVRQAPGQGLEWMGIINPSGGITNYAHKFQGRVTMTRDTSTSTVYMELSSLRSEDTALYYCVRDLSHYNEVGHDRAYYYGMDIWGQGTTVTVSS
VL: SYELIQPPSVSVSPGQTASITCSGDKLGKKYTCWYQQKPGQSPVLVIYQDNKRPSGIPERFSGSNSGNTATLTISGTQAMDEADYYCQAWDSSAVVFGGGTKLTVL
[2]
  NT50: 25 µg/mL
[3]
  NT50: 25 µg/mL
[4]
  NT50: 6.25 µg/mL
